B1: Anti-IL-6 antibody, heavy chain S35H, G66D, L100V / light chain WT (antibody, IgG1, V domains shown)
VH: EVQLVESGGGLVQPGGSLRLSCAASGFTFSPFAMHWVRQAPGKGLEWVAKISPGGSWTYYSDTVTDRFTFSLDTSKSTAYLQMNSLRAEDTAVYYCARQVWGYYALDIWGQGTLVTVSS
VL: DIQLTQSPSSLSASVGDRVTITCSASISVSYMYWYQQKPGKAPKLLIYDMSNLASGVPSRFSGSGSGTDFTLTISSLQPEDFATYYCMQWSGYPYTFGQGTKVEIK
notes: IgG1; variable domains only
B2: Anti-IL-6 antibody, heavy chain S35H, G66D, L100Y / light chain M32L, M50D, N52S, M88Q (antibody, IgG1, V domains shown)
VH: EVQLVESGGGLVQPGGSLRLSCAASGFTFSPFAMHWVRQAPGKGLEWVAKISPGGSWTYYSDTVTDRFTFSLDTSKSTAYLQMNSLRAEDTAVYYCARQYWGYYALDIWGQGTLVTVSS
VL: DIQLTQSPSSLSASVGDRVTITCSASISVSYLYWYQQKPGKAPKLLIYDDSSLASGVPSRFSGSGSGTDFTLTISSLQPEDFATYYCQQWSGYPYTFGQGTKVEIK
notes: IgG1; variable domains only; VL is variant III
B3: Anti-IL-6 antibody, heavy chain S35H, G66D, L100Y / light chain WT (antibody, IgG1, V domains shown)
VH: EVQLVESGGGLVQPGGSLRLSCAASGFTFSPFAMHWVRQAPGKGLEWVAKISPGGSWTYYSDTVTDRFTFSLDTSKSTAYLQMNSLRAEDTAVYYCARQYWGYYALDIWGQGTLVTVSS
VL: DIQLTQSPSSLSASVGDRVTITCSASISVSYMYWYQQKPGKAPKLLIYDMSNLASGVPSRFSGSGSGTDFTLTISSLQPEDFATYYCMQWSGYPYTFGQGTKVEIK
notes: IgG1; variable domains only
B4: Anti-IL-6 antibody, heavy chain S35H, G66D, Q99A / light chain WT (antibody, IgG1, V domains shown)
VH: EVQLVESGGGLVQPGGSLRLSCAASGFTFSPFAMHWVRQAPGKGLEWVAKISPGGSWTYYSDTVTDRFTFSLDTSKSTAYLQMNSLRAEDTAVYYCARALWGYYALDIWGQGTLVTVSS
VL: DIQLTQSPSSLSASVGDRVTITCSASISVSYMYWYQQKPGKAPKLLIYDMSNLASGVPSRFSGSGSGTDFTLTISSLQPEDFATYYCMQWSGYPYTFGQGTKVEIK
notes: IgG1; variable domains only
B5: Anti-IL-6 antibody, heavy chain S35H, G66D, Q99D / light chain M32L, M50D, N52S, M88Q (antibody, IgG1, V domains shown)
VH: EVQLVESGGGLVQPGGSLRLSCAASGFTFSPFAMHWVRQAPGKGLEWVAKISPGGSWTYYSDTVTDRFTFSLDTSKSTAYLQMNSLRAEDTAVYYCARDLWGYYALDIWGQGTLVTVSS
VL: DIQLTQSPSSLSASVGDRVTITCSASISVSYLYWYQQKPGKAPKLLIYDDSSLASGVPSRFSGSGSGTDFTLTISSLQPEDFATYYCQQWSGYPYTFGQGTKVEIK
notes: as for B2
B6: Anti-IL-6 antibody, heavy chain S35H, G66D, Q99A / light chain M32L, M50D, N52S, M88Q (antibody, IgG1, V domains shown)
VH: EVQLVESGGGLVQPGGSLRLSCAASGFTFSPFAMHWVRQAPGKGLEWVAKISPGGSWTYYSDTVTDRFTFSLDTSKSTAYLQMNSLRAEDTAVYYCARALWGYYALDIWGQGTLVTVSS
VL: DIQLTQSPSSLSASVGDRVTITCSASISVSYLYWYQQKPGKAPKLLIYDDSSLASGVPSRFSGSGSGTDFTLTISSLQPEDFATYYCQQWSGYPYTFGQGTKVEIK
notes: as for B2
B7: Anti-IL-6 antibody, heavy chain S35H, G66D, L100W / light chain M32L, M50D, N52S, M88Q (antibody, IgG1, V domains shown)
VH: EVQLVESGGGLVQPGGSLRLSCAASGFTFSPFAMHWVRQAPGKGLEWVAKISPGGSWTYYSDTVTDRFTFSLDTSKSTAYLQMNSLRAEDTAVYYCARQWWGYYALDIWGQGTLVTVSS
VL: DIQLTQSPSSLSASVGDRVTITCSASISVSYLYWYQQKPGKAPKLLIYDDSSLASGVPSRFSGSGSGTDFTLTISSLQPEDFATYYCQQWSGYPYTFGQGTKVEIK
notes: as for B2

The target of the assay is human IL-6 (human, UniProt P05231 30-212). Put plainly: SPR Biacore, supernatant, Protein A capture, 37 C. As for the experimental part: Those four positions were selected based on their tolerance for mutations as observed in bacterial and mammalian screens. […] These cultures were centrifuged and supernatants containing secreted antibodies were harvested and diluted in HBS-EP+ running buffer (1:20 ratio).
Sequence of human IL-6 (P05231 30-212 limits assumed): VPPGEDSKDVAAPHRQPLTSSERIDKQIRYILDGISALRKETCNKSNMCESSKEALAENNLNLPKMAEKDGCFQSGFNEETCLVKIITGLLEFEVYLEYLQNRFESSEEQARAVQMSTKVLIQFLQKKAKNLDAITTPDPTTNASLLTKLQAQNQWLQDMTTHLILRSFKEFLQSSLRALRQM
Antibodies were captured on a Protein A chip (GE) by injecting 1:20 cell supernatant dilutions at 10 μL/min for 60 seconds. […] The sensor chip was regenerated by a 60 seconds injection of 10 mM Glycine pH 1.7 at the flow rate of 50 μL/min. […] For this setup, 1 μg/mL of purified antibody was injected over a Protein A chip at 10 μL/min for 25 seconds. […] The sensor chip was regenerated by a 60 seconds injection of 10 mM Glycine pH 1.7 at flow rate of 50 μL/min. Data analysis for supernatant and purified samples were performed using BIAevaluation software (GE). All sensorgrams were double reference subtracted and fit using a 1:1 Langmuir binding model.
Background: In SPR one partner is held on a chip, and binding of the other changes the refractive index at the surface.
What is called Kd is a measure of binding affinity in units of concentration. The low end stands for a tighter complex, the high end for a looser complex. What is called koff is the rate constant with which the complex falls apart. A higher koff goes with a short-lived complex. As usually defined, the kon is a measure of how fast the partners come together. A high value points to faster complex formation. On to B1, for which the affinity, expressed as Kd, was 244 pM; the koff was determined as 0.000579 s⁻¹; the kon was determined as 2.37e+06 M⁻¹ s⁻¹.
The molecule B2 had a Kd of 934 pM, a koff of 0.000801 s⁻¹ and a kon of 858000 M⁻¹ s⁻¹.
For B3, in that order: 638 pM, 0.000642 s⁻¹ and 1.01e+06 M⁻¹ s⁻¹.
For B4, in that order: 717 pM, 0.00132 s⁻¹ and 1.85e+06 M⁻¹ s⁻¹.
On to B5, for which the Kd came out at 3610 pM.
B6: the Kd was found to be 3070 pM, the koff was 0.0045 s⁻¹ and the kon was 1.47e+06 M⁻¹ s⁻¹.
The corresponding values for B7 are 1980 pM, 0.00124 s⁻¹ and 625000 M⁻¹ s⁻¹.
